B1: T0170011A10 (VHH, not shown: small tags and cut ends)
VHH: EVQLVESGGGLVQGGGSLSLSCAASGRTFSSYAMAWFRQPPGKEREFVASISWSGENTNYRNSVKGRFTISRDNAKNTVYLQMNSLKPEDTAVYYCAAKIAKTYPDNWYWTKSNNYNYWGQGTQVTVSS
B2: T0170052G04 (VHH, not shown: small tags and cut ends)
VHH: EVQLVESGGGAVQPGGSLRLSCAASGIRISRNMMGWFRQAPGKQRDLVARITPGGDTYYVDSVKGRFSISKDNAKNTVYLQMNSLKPEDTAVYYCNSYSTLGSWGQGTQVTVSS
B3: T017000016 (bispecific antibody)
chain: EVQLVESGGGLVQPGGSLRLSCTFSGGTFSSYTMGWFRQAPGKEREFVAEVRWGGVTTYSNSLKDRFSISEDSVKNAVYLQMNSLKPEDTAVYYCAAVRQMYMTVVPDYWGQGTLVTVSSGGGGSGGGGSGGGGSGGGGSGGGGSGGGGSGGGGSEVQLVESGGGSVQAGGSLRLSCAASGRTFSTNPMGWFRQVPGKERELIAAVRWADGNTFYADSVKGRFTISRDNAKKTVYLQMNSLKSEDTATYYCAAGRPWSAYHSPAEYVHWGQGTLVTVSSGAADYKDHDGDYKDHDIDYKDDDDKGAAHHHHHH

Tests used:
[1] = target: human TCR(2IAN)/CD3 expressed on HEK293H cells (human) (UniProt P04234); test: flow cytometry on HEK293H cells expressing human TCR(2IAN)/CD3
[2] = target: human CD3 expressed on HEK293H cells (human) (UniProt P20963); test: flow cytometry on HEK293H cells expressing human CD3
[3] = target: human TCR/CD3 complex on purified primary human T cells (human); test: flow cytometry on primary human T cells
Sequence of human TCR/CD3 complex on purified primary human T cells (human) (delta, as listed by the source limits assumed, form in doubt, chain 1 of 4): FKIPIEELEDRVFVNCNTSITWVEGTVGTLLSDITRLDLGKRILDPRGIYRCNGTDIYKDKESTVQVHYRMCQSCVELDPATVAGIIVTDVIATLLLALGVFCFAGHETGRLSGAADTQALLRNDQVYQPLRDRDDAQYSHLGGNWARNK
Sequence of human TCR/CD3 complex on purified primary human T cells (human) (gamma, as listed by the source limits assumed, form in doubt, chain 2 of 4): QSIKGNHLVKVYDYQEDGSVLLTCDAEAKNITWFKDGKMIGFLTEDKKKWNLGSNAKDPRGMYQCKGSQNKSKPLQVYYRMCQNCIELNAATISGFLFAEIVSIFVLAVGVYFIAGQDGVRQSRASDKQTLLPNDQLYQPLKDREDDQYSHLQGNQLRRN
Sequence of human TCR/CD3 complex on purified primary human T cells (human) (epsilon, as listed by the source limits assumed, form in doubt, chain 3 of 4): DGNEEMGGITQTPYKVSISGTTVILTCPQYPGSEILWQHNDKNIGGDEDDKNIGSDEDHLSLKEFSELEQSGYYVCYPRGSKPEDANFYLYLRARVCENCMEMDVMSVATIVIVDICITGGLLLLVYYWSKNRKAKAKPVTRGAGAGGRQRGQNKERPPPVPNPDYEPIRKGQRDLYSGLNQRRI
Sequence of human TCR/CD3 complex on purified primary human T cells (human) (zeta, as listed by the source limits assumed, form in doubt, chain 4 of 4): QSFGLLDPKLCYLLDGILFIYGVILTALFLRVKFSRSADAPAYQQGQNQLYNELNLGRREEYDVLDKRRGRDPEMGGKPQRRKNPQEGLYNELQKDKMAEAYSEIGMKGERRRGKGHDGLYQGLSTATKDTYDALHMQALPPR

Sequence of human CD3 expressed on HEK293H cells (human) (chain, as listed by the source limits assumed, chain 1 of 4): as the sequence (delta, as listed by the source limits assumed, form in doubt, chain 1 of 4) above
Sequence of human CD3 expressed on HEK293H cells (human) (chain, as listed by the source limits assumed, chain 2 of 4): as the sequence (gamma, as listed by the source limits assumed, form in doubt, chain 2 of 4) above
Sequence of human CD3 expressed on HEK293H cells (human) (chain, as listed by the source limits assumed, chain 3 of 4): as the sequence (epsilon, as listed by the source limits assumed, form in doubt, chain 3 of 4) above
Sequence of human CD3 expressed on HEK293H cells (human) (P20963 22-164 limits assumed, chain 4 of 4): as the sequence (zeta, as listed by the source limits assumed, form in doubt, chain 4 of 4) above

Row | Binder | EC50 [1] [nM] | MCF at 1 µM/top [1] [MCF] | EC50 [2] [nM] | MCF at 1 µM/top [2] [MCF] | EC50 [3] [nM]
1 | B1 | > 100 | 15900 | > 100 | 3300 | 
2 | B2 | > 100 | 4950 | > 100 | 2850 | 
3 | B3 |  |  |  |  | > 100
